Reference: the DeepSol protein solubility set

Assay: soluble on expression in E. coli; label from the status in PepcDB or PDB records

Sequence	soluble on expression in E. coli
MGSDKIHHHHHHMLKNSAKNFVENIEKKLYLSIKEKTDSITFKLEKVLKAFSDSHLNVQHFASLTGYGHGDLGRDIIDKIFANVLDAEKAAVRLQLVSGTHAITSSLFGVLRPGDGLLSVTGRPYESLEEVIGLRGNGKGSLIEFGIAYEEISLKDDGNIDFLALEKALKIPRKLIFIQRSCGYTWRPSLSIEVIKEICYLCHKIQPNCICFVDNCYGEFVETNEPTSVGADLIAGSLIKNLGGTIVPTGGYIAGKADLVDKACCRLTAPGIGSEGGITFDLNRTILQGLFLAPQMVSEALIGAEIISTSFSELGFKVLPTPASKRTDLIQIVRIGDPKILQIICRSFQEKSPIGSFLDPIPAPMPGYENNLVMAGGTFVDGSTSEFSADAPMKPPFDLFIQGGSHRAHVKIALIHALSNLFQAGLIKLPQND	not soluble
MSLINGSDPRYNFNVAPYPYCRLCKGHKHMCGLRVCPILERFQEVFPRLDLHGDISTSTPPSIFIGEYNYPSVYGGIMSVVDPERPYARRDMFDLGMPEIIERNANLFRNVKTVSVHNLSEKTVEQIQEAAMALNELRVESRIVGKEKHFDFFDSPVGPMYKSENIKVYGNAKTPRAAQDVIYDIDLNSTEALKILYMNSIDINYITGLLSGGLLGIEKKRKLVPTRWSITAVDDTISRYLKSDALNYESIDKPMVFSYSRFGNHFNIILLPRGTAFEMQEYWEIGSLWGSDGRVSIDFEGHHHHHH	soluble
MGSDKIHHHHHHMKNFVLDTNVLLYDPQAIFKFEENNIIIPITVIEEVDRFKKDMNETGRNARQVSRYLDDMRKIGSLSSGITLETGGMLRVEMYEEKIMKRLPPELREERGDNRILAVAVKILEENGGAPVVFVTKDTNLRIKADAIGLKAEDYESDKVDIEELYPGFTEIDVAADTVDRFHGQGWVELPGQTFFPNQCVTLRDEANPSHTALGKYRVGDGKITPLIKTGKEGVWSIFPRNREQAFAFDLLLDDSIKLVTLVGKAGTGKTLLAIAAGLHKTAEENVFNRLLVSRPVFPMGRDLGFLPGDIEEKLAPWMQPIFDNVELLLSGHEAEKRHSKGYKELMAMGIMEIEPLTYIRGRSIPNQFMIVDEAQNLTPHEIKTIITRAGEGTKIVLTGDPYQIDNPYVDASSNGLTYVVERFKEQAIAGHVTMTKGERSDLAELAANLL	not soluble
MGSDKIHHHHHHMLDKSRLSRFKTQIDSQTEIAKFDALAKEWRDPHGKFKHVLSFNQTRLTAIEDQIASHFGRDLTQDIPFDGLSLLDIGCGVGLLCEPLASQGARVTGIDASEHNITLAHRHANSWSIPIEYRHCLAGDLPREQPQYDVILNTEVIEHVEDQAALVASCCDLLKPGGLMVMATLNRTLRSYLIGIIGAEYIMRYLPTGTHDWHHFVTPQELDEMLTPHGLSTKGVEGMAFNPFTRRWKITSNSAVNYLLYASKPIPGVLEA	not soluble
MSLSKSRKIDVHAHVLPKNIPDFQEKFGYPGFVRLDHKEDGTTHMVKDGKLFRVVEPNCFDTETRIADMNRANVNVQCLSTVPVMFSYWAKPADTEIVARFVNDDLLAECQKFPDRLVPLGTLPMNDVQRAVEEVKRCVSMGIKGFEVGSHVAEKSLDHRDFWPLYKICEELSVVLFVHPWDMHMWDGRLDKYWMPWLVGMPSETAQAICSVLMGNILVLFPKLKLCFAHGGGAYPQIRGRVSHGWNVRPDLCAGKCKVAPNKLDGLLWTDSLVHDPKALELLINTVGKEHIVLGTDYPFPLGELEVGRVVEEYKPFSAKDREDLLWKNAVKMLDIDENLLFNKDFEGHHHHHH	not soluble
SLFKVGKVSYLNTLPLFYSLEGFEVVEGVPSELVEKLRRGEIHAGIVSSVEYFFNPQDYFILSGISISSRGSVCSVKLFSNEPMEKIREVNITKASLTSRELLFYLFEKKFGFVPKESEEAQAKLLIGDEAMEQKGYKFVYDLGEEWFKLHGLPFVFALFLVKRDADISKAKFLKKEIKKSVKNFFEEGIKNIKNKEYFKNCLDYSLGGEHIKSLINFYAYLSRKFKKQVPKLKFVL	soluble
MRLYRDRAVVLRQHKLGEADRIVTLLTRDHGLVRAVAKGVRRTRSKFGARLEPFAHIEVQLHPGRNLDIVTQVVSVDAFATDIVADYGRYTCGCAILETAERLAGEERAPAPALHRLTVGALRAVADGQRPRDLLLDAYLLRAMGIAGWAPALTECARCATPGPHRAFHIATGGSVCAHCRPAGSTTPPLGVVDLMSALYDGDWEAAEAAPQSARSHVSGLVAAHLQWHLERQLKTLPLVERFYQADRSVAERRAALIGQDIAGG	not soluble
MGSDKIHHHHHHMAKAPKMAFVCDDCGLDYPRWQGQCRCGAWNSLVEMKLSASKSSTSRSSVLGYAGAVGGGSKKLSEVESEDAEKRLTEIGELDRVLSGGLTTGSVNIISGDPGAGKTTLLSDLVARMSQSMASLYCTAEESLSQFKNRVNRLKLNYNEDNLFLLSETSVEAIIEELEAKQIKFAVIDSIQAVVTDAANGSPGSPSQVKTAAQAFTQYCKKNNVTMFIIAHVNKNNEIAGPQTLVHIVDSLLHIDTNDGQIRTLRANKNRFGDVDTVGIFRMSERGMISVDNPSEIFLSGSTTESPGSTITCIRKGNRNLLLEIQCLTTETESEFPQRVCVGLNMNRIKMLTGILRKHTKTKIFHDTFFNIVGGLKIDESETCIDLALVTALLSSLNDFVVPRTTCIMGELSLNGDVRPIDSGVPRVKEAAQHGFTEIFIPFRNYHKTMEGLGAKIIPVKTIHELLELIN	not soluble
GERLSMEDAVKLYESDEVEKMGAAANQIMLKWHPEPITTFVIGRNVNYTNFCDTYCRFCAFYRAPGHKEGYVLDDEVILKKIQETIDVGGTEILMQGGTNPDLTIDYYTDLLRNIKERFPNIWMHSFSPAEVWKIAEVSSMSVEEVLRELHEAGLDSMPGGGAEILTEETRLRVSRLKITWEQWINAMKATKKVGMHGTATMVIGFGESFEERALHLQRVRDAQDETECFTAFISWLFQPENTGMYKTKKLTPRDYLKNVAISRLFLDNIPNFQSSWVTMGPEVGKLSLQYGCNDFGSTMIEENVVSAAGTTHKVNTNKILQLIREAGKIPAQR	not soluble
GNFYAVRKGRETGIYNTWNECKNQVDGYGGAIYKKFNSYEQAKSFLG	soluble
MGHHHHHHSHMGDSRRDVLHEPAIALLSSPQTQSRLQIDAFIARRCWGSQWDITGYIHQQDFPTAVFIGFSNEFNICIPHPFTEWLQCVRKYSQSWGVRKGQRHIRYGMCSERTHHLSRTYSSLLEREEKLAFYGVLTMCQIWSET	not soluble
SLSFASSACFNEAGTMFRIEPNLIKAIALVESNLKKDSIGKNRDKKNNIKSFDYGLMQINQMHIPMLKKRGIIKDERDLLDNPCLNIKIGTEILYKHFSRCGMTWQCLGTYNAGFAMDNQKKRLQYAKKIYIVYTRLNELDNRKALA	not soluble
MVNQPLVSIIIPAYRAENTIAFTVRSVLAQTYDHWQVAIGVDDQVDYLQLLAEQGINDPRLKQVFTGGIGSGEAIARNKAVSICDGDILANLDADDAFASDRLEKLVPLAEKYGVAIDNTGVYNSELVLYKQPFPQRQALNFATAADILSPRIPFFPVFQRQLLGDGWTKVPFAADVLFNLELLSRTEKVAIHPEPLYRYYKRDNSITQSANAFETAEKAYLTILSLLDEGALTLTDAIRQAARQEFSENLALNKVFRRYMEEGRCQNLEQFLDMTNNGQKIEFVSNLNLEHHHHHH	soluble
MGSSHHHHHHGGTGENLYFQGGSGQQQPRPVVAQYAYIELLPLRYTGPAPPPAPACMDPTPDEQYRRGVAEKRAALKQKEARRQMSSSGSGMLASLKSAVSQAVMTMEKGAADVSTRTESQVRQLEYQYDCDRFNLHFHELAENGEVLLADYRCSAMHSGLRVNGHVQITPHYLCFLAETTSSIAKTTDAVMGVFVAARHPTSANDEPRNRPVGIKQVIALADIVSIQPSVVLESIGGQAPFFMLLPAPTVRPTALQLYTQDSKLYQFMNFESLVSRATVALNDVVKGTALDQAYNYLDHAWRDTVNLRSKDV	not soluble
SASPSLERPEKGAGKSEFRNQKPKPENQDESELLTVPDGWKEPAFSKEDNPRGLLEESSFATLFPKYRGAYLKECWPLVQKALNEHHVNATLDLIEGSMTVCTTKKTFDPYIIIRARDLIKLLARSVSFEQAVRILQDDVACDIIKIGSLVRNKERFVKRRQRLIGPKGSTLKALELLTNCYIMVQGNTVSAIGPFSGLKEVRKVVLDTMKNIHPIYNIKSLMIKRELAKDSELRSQSWERFLPQFKHKNVNKRKEPKKKTVKKEYTPFPPPQPESQIDKELASGEYFLKANQKKRQKMEAIKAKQAEAISKRQEERNKAFIPPKEKPIVKPKEASTETKIDVASIKEKVKKAKNKKLGALTAEEIALKMEADEKKKKKKK	soluble
MAHHHHHHMTQLHSVASLDYGDGRTCVCRICECGKHQCPGLRVPFVGETTYRDEYVGKSIERERPRKARQTVFPSKAEPGHFKTTKQEAADLLKGKDLRPAESYKPREAAAAPLPFEGTTTNRADFPGWMPDYNRTKRKEDPLPRLPGTYVTTKGAMEEPVRDLAEQGRLPKPPKSFKADDTLQNSLPFDGITNYTAEYQPKEVPMTRSAARDVQPVALPENRDFQTTVSAAYQVPPMHMRHDCPAAFVPMRPASRDGHIKLSVYNIPSGDTMY	not soluble
MIGGGPGGLYFAYLWKKRHPEDQVDLFEQNPADATWGFGVVFSDQALEFLRADDPETVDAIAPHMESWENITLNLQGGSVAIDGVGFSSIGRLELLQFLQQRALDVGVTPRFDTQIHGIDQLNGHDLIVAADGLNSLVRRAYEGDFGTSLSYSSNKFVWYGTSKRFDTLSQTFVKTDRGAFNAHHYRYSPTMSTFLVECDHATWQAYGFAYKDVEQSKGVCEEVFADTLGGHCLVSNKSVWRNFPWVWNEHWSFKNMVLIGDALHSAHFSIGSGTRLAIEDAIALVKALESDAHLNTALLRYQAARKPVVQKLVDAARTSASWYENFAQHMQLDLMDFAYSYITRSGRIDDSRLRAMSPAFMARYEAAKNGGDAASEATALEHHHHHH	soluble
MGSDKIHHHHHHMSCSTAVKENTTQPDIMETNKKNLGNLLALYPKPMTVVGAEVEGKVNWLVVGHTGVIGHDRILVSMSKSHYTNQGIKKSKRLSVNLVSREMLPKADYVGSVSGATVDKSEVFAYHIGENDTPVIDASPLTMECEVVDIYETDGFDNFICAIVNTYAASDVLDSDGKLDYTKLKPVLFEFPTYSYLATGEIIGKCLNPDKPGMCVKEPMTTDGIVRLSKIEVYPQYLDEYMNYATEVGEISLRTEPGVLTMYAVGEKENPCKVTILETYASREAYEQHIASEHFQKYKQGTLHMVKSLVLSDQTPLNPANKLNNFMQ	not soluble
MAESDWDTVTVLRKKGPTAAQAKSKQAILAAQRRGEDVETSKKWAAGQNKQHSITKNTAKLDRETEELHHDRVTLEVGKVIQRGRQSKGLTQKDLATKINEKPQVIADYESGRAIPNNQVLGKIERAIGLKLRGKDIGKPIEKGPKAK	soluble
MSLNASEAVYKAILDSGVDFVTSVPCANLKTVLNYLNDNKDIQHIPVTREEEGIGVCAGAYLGGRKTALLMQNSGLGNSINAIGSLVKVYKIPILIIISHRGDLKEKISAQIPMGQWTKKLLETVEIPYFSPKTPDEAYKLIKDASELSINMEYPVAILLDALYWEHDKEGHHHHHH	soluble
MSLKYDVVVIGAGGAGYHGAFRLAKAKYNVLMADPKGELGGNCLYSGCVPSKTVREVIQTAWRLTNIANVKIPLDFSTVQDRKDYVQELRFKQHKRNMSQYETLTFYKGYVKIKDPTHVIVKTDEGKEIEAETRYMIIASGAETAKLRLPGVEYCLTSDDIFGYKTSFRKLPQDMVIIGAGYIGLEIASIFRLMGVQTHIIEMLDRALITLEDQDIVNTLLSILKLNIKFNSPVTEVKKIKDDEYEVIYSTKDGSKKSIFTNSVVLAAGRRPVIPEGAREIGLSISKTGIVVDETMKTNIPNVFATGDANGLAPYYHAAVRMSIAAANNIMANGMPVDYVDVKSIPVTIYTIPSLSYVGILPSKARKMGIEIVEAEYNMEEDVSAQIYGQKEGVLKLIFERGSMRLIGAWMIGVHSQYLINELGLAVAYGLNAKQLASFAEQHPSTNEIISYTARKVIEGHHHHHH	soluble
